Assay [1] has as its target syt2_rat Syt2 (UniProt P29101).
In assay [2] the target is syt2_rat Syt2 (UniProt P29101). This is another data set of the same source.
syt2_rat Syt2, sequence (P29101 whole entry): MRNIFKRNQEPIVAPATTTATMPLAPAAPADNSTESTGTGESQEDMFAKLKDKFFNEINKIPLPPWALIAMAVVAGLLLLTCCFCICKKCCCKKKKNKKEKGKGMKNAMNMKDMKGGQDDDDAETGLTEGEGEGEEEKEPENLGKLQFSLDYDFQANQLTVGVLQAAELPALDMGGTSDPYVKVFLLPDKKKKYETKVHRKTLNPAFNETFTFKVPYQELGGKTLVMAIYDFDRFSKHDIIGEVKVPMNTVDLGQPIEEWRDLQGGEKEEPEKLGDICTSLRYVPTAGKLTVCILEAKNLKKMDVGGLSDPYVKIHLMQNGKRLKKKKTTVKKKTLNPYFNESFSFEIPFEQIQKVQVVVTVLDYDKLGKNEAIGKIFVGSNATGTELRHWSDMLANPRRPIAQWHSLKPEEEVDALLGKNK

For “Serine/threonine-protein kinase WNK1 (Rattus norvegicus (Rat)), Q9JIH7 V318D”, in the assay with syt2_rat Syt2 [1], the “effect of a mutation on the interaction” value is recorded as “decreasing interaction”.

For the substance “Serine/threonine-protein kinase WNK1 (Rattus norvegicus (Rat)), Q9JIH7 V318E”, the “effect of a mutation on the interaction” value in the assay with syt2_rat Syt2 [2] is “decreasing interaction”.

These data come from IntAct's records for PubMed 15350218.
